For data set [1], the system named is HeLa Kyoto. Briefly: thermal stability score vs G1/S (z-score of summed log2 fold changes over temperatures); higher = more thermally stable than in G1/S.
The test system of data set [2] is HeLa Kyoto. Briefly: solubility in G1/S (NP-40 vs SDS abundance) (log2 ratio); higher = more soluble. The settings on record: cell cycle stage: G1/S.
Data set [3] relates to HeLa Kyoto. Briefly: melting temperature (median over replicates), in situ; higher = more thermally stable.
Data set [4] has as its system HeLa Kyoto. Briefly: solubility change mitosis vs G1/S (difference of NP-40 vs SDS log2 ratios) (log2 ratio difference); higher = more soluble in mitosis.
The mark [5] stands for this setting: cell cycle stage: early G1 (4.5 h after nocodazole release).

Consider 6 sequences from the supplement of paper PMC5998384.
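For melting temperature (median over replicates), in situ in this document: HeLa Kyoto cells synchronized by double thymidine or nocodazole block, proteins quantified by TMT10plex mass spectrometry, three independent biological replicates.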
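For solubility change mitosis vs G1/S (difference of NP-40 vs SDS log2 ratios) in this document: synchronized HeLa Kyoto cells (double thymidine block for G1/S, nocodazole release for mitosis), protein amounts in NP-40 versus SDS lysates quantified by mass spectrometry, three biological replicates.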
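For solubility in G1/S (NP-40 vs SDS abundance) in this document: HeLa Kyoto cells arrested at G1/S by double thymidine block, proteins quantified by TMT10plex mass spectrometry in mild NP-40 versus SDS extracts, three biological replicates.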
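For thermal stability score vs G1/S (z-score of summed log2 fold changes over temperatures) in this document: synchronized HeLa Kyoto cells, proteins quantified by TMT10plex mass spectrometry, three biological replicates, mitosis taken 0.5 h after nocodazole release, G1/S directly after double thymidine block.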

On to “MAVDITLLFRASVKTVKTRNKALGVAVGGGVDGSRDELFRRSPRPKGDFSSRAREVISHIGKLRDFLLEHRKDYINAYSHTMSEYGRMTDTERDQIDQDAQIFMRTCSEAIQQLRTEAHKEIHSQQVKEHRTAVLDFIEDYLKRVCKLYSEQRAIRVKRVVDKKRLSKLEPEPNTKTRESTSSEKVSQSPSKDSEENPATEERPEKILAETQPELGTWGDGKGEDELSPEEIQMFEQENQRLIGEMNSLFDEVRQIEGRVVEISRLQEIFTEKVLQQEAEIDSIHQLVVGATENIKEGNEDIREAIKNNAGFRVWILFFLVMCSFSLLFLDWYDS [STX18]”, for which the thermal stability score was 0.0563 in data set [1] (setting [5]) and -0.262 in data set [1] (cell cycle stage: mitosis). Further, the “solubility in G1/S (log2)” value in data set [2] came out at 0.186. For the same sequence, the melting temperature came to 50.1 °C in data set [3] (cell cycle stage: G1/S) and 50.8 °C in data set [3] (cell cycle stage: mitosis). In addition, in data set [4], the “solubility change mitosis (log2)” value is -0.0525.
As for “MAVEELQSIIKRCQILEEQDFKEEDFGLFQLAGQRCIEEGHTDQLLEIIQNEKNKVIIKNMGWNLVGPVVRCLLCKDKEDSKRKVYFLIFDLLVKLCNPKELLLGLLELIEEPSGKQISQSILLLLQPLQTVIQKLHNKAYSIGLALSTLWNQLSLLPVPYSKEQIQMDDYGLCQCCKALIEFTKPFVEEVIDNKENSLENEKLKDELLKFCFKSLKCPLLTAQFFEQSEEGGNDPFRYFASEIIGFLSAIGHPFPKMIFNHGRKKRTWNYLEFEEEENKQLADSMASLAYLVFVQGIHIDQLPMVLSPLYLLQFNMGHIEVFLQRTEESVISKGLELLENSLLRIEDNSLLYQYLEIKSFLTVPQGLVKVMTLCPIETLRKKSLAMLQLYINKLDSQGKYTLFRCLLNTSNHSGVEAFIIQNIKNQIDMSLKRTRNNKWFTGPQLISLLDLVLFLPEGAETDLLQNSDRIMASLNLLRYLVIKDNENDNQTGLWTELGNIENNFLKPLHIGLNMSKAHYEAEIKNSQEAQKSKDLCSITVSGEEIPNMPPEMQLKVLHSALFTFDLIESVLARVEELIEIKTKSTSEENIGIK [GLMN]”, the thermal stability score in data set [1] (setting [5]) came to 0.45; in data set [1] (cell cycle stage: mitosis), 0.785. Further, in data set [2], the “solubility in G1/S (log2)” value was 0.0671. Besides, the figures for the melting temperature in data set [3] (cell cycle stage: G1/S) and in data set [3] (cell cycle stage: mitosis) were 52.2 °C and 51.3 °C, respectively. In data set [4], the “solubility change mitosis (log2)” value was -0.21.
“MAVLLLLLRALRRGPGPGPRPLWGPGPAWSPGFPARPGRGRPYMASRPPGDLAEAGGRALQSLQLRLLTPTFEGINGLLLKQHLVQNPVRLWQLLGGTFYFNTSRLKQKNKEKDKSKGKAPEEDEEERRRRERDDQMYRERLRTLLVIAVVMSLLNALSTSGGSISWNDFVHEMLAKGEVQRVQVVPESDVVEVYLHPGAVVFGRPRLALMYRMQVANIDKFEEKLRAAEDELNIEAKDRIPVSYKRTGFFGNALYSVGMTAVGLAILWYVFRLAGMTGREGGFSAFNQLKMARFTIVDGKMGKGVSFKDVAGMHEAKLEVREFVDYLKSPERFLQLGAKVPKGALLLGPPGCGKTLLAKAVATEAQVPFLAMAGPEFVEVIGGLGAARVRSLFKEARARAPCIVYIDEIDAVGKKRSTTMSGFSNTEEEQTLNQLLVEMDGMGTTDHVIVLASTNRADILDGALMRPGRLDRHVFIDLPTLQERREIFEQHLKSLKLTQSSTFYSQRLAELTPGFSGADIANICNEAALHAAREGHTSVHTLNFEYAVERVLAGTAKKSKILSKEEQKVVAFHESGHALVGWMLEHTEAVMKVSITPRTNAALGFAQMLPRDQHLFTKEQLFERMCMALGGRASEALSFNEVTSGAQDDLRKVTRIAYSMVKQFGMAPGIGPISFPEAQEGLMGIGRRPFSQGLQQMMDHEARLLVAKAYRHTEKVLQDNLDKLQALANALLEKEVINYEDIEALIGPPPHGPKKMIAPQRWIDAQREKQDLGEEETEETQQPPLGGEEPTWPK [SPG7]”: the thermal stability score in data set [1] (setting [5]) was found to be 2.94; in data set [1] (cell cycle stage: mitosis), 1.55. In data set [2], the “solubility in G1/S (log2)” value came to 0.0611. The melting temperature came to 51.2 °C in data set [3] (cell cycle stage: G1/S) and 51.9 °C in data set [3] (cell cycle stage: mitosis). Moreover, the “solubility change mitosis (log2)” value in data set [4] was -0.102.
On to “MAVRSLWAGRLRVQRLLAWSAAWESKGWPLPFSTATQRTAGEDCRSEDPPDELGPPLAERALRVKAVKLEKEVQDLTVRYQRAIADCENIRRRTQRCVEDAKIFGIQSFCKDLVEVADILEKTTECISEESEPEDQKLTLEKVFRGLLLLEAKLKSVFAKHGLEKLTPIGDKYDPHEHELICHVPAGVGVQPGTVALVRQDGYKLHGRTIRLARVEVAVESQRRL [GRPEL2]”, for which the thermal stability score in data set [1] (setting [5]) is -0.696; in data set [1] (cell cycle stage: mitosis), 2.19. Further, in data set [2], the “solubility in G1/S (log2)” value stood at 0.335. This sequence yielded a melting temperature in data set [3] (cell cycle stage: mitosis) of 48.4 °C. Moreover, the “solubility change mitosis (log2)” value in data set [4] is -0.104.
Regarding “MAVTALAARTWLGVWGVRTMQARGFGSDQSENVDRGAGSIREAGGAFGKREQAEEERYFRAQSREQLAALKKHHEEEIVHHKKEIERLQKEIERHKQKIKMLKHDD [ATPIF1]”, the thermal stability score in data set [1] (setting [5]) is 3.16; in data set [1] (cell cycle stage: mitosis), -2.08. In data set [2], the “solubility in G1/S (log2)” value was 0.903. In addition, the results for the melting temperature in data set [3] (cell cycle stage: G1/S) and in data set [3] (cell cycle stage: mitosis) were 56.8 °C and 56.9 °C, respectively. The “solubility change mitosis (log2)” value in data set [4] was found to be 0.408.
“MAVTGWLESLRTAQKTALLQDGRRKVHYLFPDGKEMAEEYDEKTSELLVRKWRVKSALGAMGQWQLEVGDPAPLGAGNLGPELIKESNANPIFMRKDTKMSFQWRIRNLPYPKDVYSVSVDQKERCIIVRTTNKKYYKKFSIPDLDRHQLPLDDALLSFAHANCTLIISYQKPKEVVVAESELQKELKKVKTAHSNDGDCKTQ [DPCD]”: the thermal stability score stood at 0.4 in data set [1] (setting [5]) and 0.716 in data set [1] (cell cycle stage: mitosis). Further, the “solubility in G1/S (log2)” value in data set [2] was 0.223. For the same sequence, the values for the melting temperature in data set [3] (cell cycle stage: G1/S) and in data set [3] (cell cycle stage: mitosis) were 49.9 °C and 49 °C, respectively. Moreover, in data set [4], the “solubility change mitosis (log2)” value is -0.0049.
